# Measurements: patent US10465009B2, “BCMA antigen binding proteins” (Amgen Inc., priority 2012, dated 2019)
# Key:
# BCMA = target: T1, BCMA (Homo sapiens, UniProt Q02223, N81S); assay: FACS binding on cells transiently transfected to express full length BCMA; details: MFI vs negative control
# T1 construct: cells transiently transfected to express full length BCMA, TACI, or BAFF-R; expressed in transfected cells
# T1 sequence (Q02223 1-184 N81S): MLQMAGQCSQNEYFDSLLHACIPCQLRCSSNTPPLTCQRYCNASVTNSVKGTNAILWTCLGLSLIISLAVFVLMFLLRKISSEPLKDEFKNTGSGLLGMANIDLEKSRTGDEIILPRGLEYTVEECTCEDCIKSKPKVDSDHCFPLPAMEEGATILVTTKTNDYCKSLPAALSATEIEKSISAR
# Experimental: An important criterion is exquisite selectivity for wild-type human BCMA expressed on the surface of cells. FACS binding on cells transiently transfected to express full length BCMA, TACI, or BAFF-R was performed using standard techniques. Approximately 40×10^6 of the transiently-transfected target cells were resuspended in a staining solution (2% goat serum, 1% rabbit serum, 0.02% azide in PBS) and aliquoted into round-bottom, 96-well plate (Corning Incorp., Acton, Mass.) as per the experiment design. The cells were incubated at 4 degrees celsius for 30 minutes to block non-specific sites. The antibodies were titrated into the staining solution. The cells were rinsed in a rinse solution (PBS+0.02% azide) by resuspending the cells in 200 ul/well. The cells were centrifuged at 1500 rpm at 4 degrees celsius for 7 minutes. The rinse solution was removed and the rinse step was repeated. The cells were resuspended in the appropriate antibody solution (see the matrix in TABLE 4) at 30 ul/well and incubated at 4 degrees celsius for 30 minutes. […] For the mouse IgG1 negative control and the two mouse antibodies (1.183 and 1.288), the secondary reagent was an anti-mouse IgG-PE conjugate (BD Pharmingen Cat. 550589). The cells/antibodies were rinsed as described above to remove excess/unbound antibody. […] Samples were read at 532 nm wavelength on FACS. […]
# huBCMA on H929 cells = target: T2, huBCMA on H929 cells (Homo sapiens, UniProt Q02223, N81S); assay: FACS binding to native BCMA on H929 myeloma cells; details: flow cytometry; muteins relative to parental 2A1
# T2 construct: endogenous in cells; host or cells: H929 human multiple myeloma cell line
# T2 sequence (Q02223 1-184 N81S): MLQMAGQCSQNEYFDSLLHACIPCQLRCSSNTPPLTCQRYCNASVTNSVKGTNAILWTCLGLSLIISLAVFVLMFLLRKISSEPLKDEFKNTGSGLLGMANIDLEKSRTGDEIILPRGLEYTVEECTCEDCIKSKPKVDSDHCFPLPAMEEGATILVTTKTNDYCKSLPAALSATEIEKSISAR
# Experimental: Approximately 10 to 40×10^6 of H929 myeloma cells were resuspended in a staining solution (2% goat serum, 1% rabbit serum, 0.02% azide in PBS) and aliquoted into round-bottom, 96-well plate (Corning Incorp., Acton, Mass.) as per the experiment design. The cells were incubated at 4 degrees celsius for 30 minutes to block non-specific sites. The antibodies were titrated into the staining solution. The cells were rinsed in a rinse solution (PBS+0.02% azide) by resuspending the cells in 200 ul/well. The cells were centrifuged at 1500 rpm at 4 degrees celsius for 7 minutes. The rinse solution was removed and the rinse step was repeated. […] The huIgG1 negative control's secondary reagent was a biotinylated anti-huIgG (Jackson Labs, Bar Harbor, Me., Cat. 109-065-098), followed by a streptavidin-phycoerythrin (SA-PE) conjugate (BD Pharmingen, San Diego, Calif., Cat. 554061). […] The cells/antibodies were rinsed as described above to remove excess/unbound antibody. […] Samples were read at 532 nm wavelength on FACS.
# To further characterize the engineered mutein antibodies, they were tested for the ability to bind BCMA by FACS analysis. […] The supernatants were removed and the cell pellets were resuspended in 0.2 mL/tube 4% paraformaldehyde in PBS and analyzed by flow cytometry
molecule,measurement,setting,value
"1E1: fully human anti-huBCMA mAb, Vh SEQ ID NO:212, Vl SEQ ID NO:246 (antibody, V domains shown) VH: QVQLVQSGAEVKKPGASVKVSCKASGYTFTGHYIHWVRQAPGQGLEWMGWIYPNSGGTNYAQKFQGRVTMTRDTSISTAYMELSRLRSDDSAVYYCAREGMVTGDYYYYRMDVWGQGTTVIVSS VL: QPVLTQPPSASASLGASVTLTCSLSSGYSNYKVDWYQQRPGKGPRFVMRVGIGGIVGSKGDGIPDRFSVLGSGLNRYLTIKNIQEEDESDFHCGADHGSGNNFVYVFGTGTKVTVLG",BCMA (FACS binding),BCMA,+ (A sample was considered positive for binding if the MFI was two times the negative control value)
same,binding to BCMA on H929 cells,huBCMA on H929 cells,bound to human BCMA
